We go through 26 molecules from patent publication US9187525B2, “Methods of treating ophthalmic diseases using NPR-B agonists” (Shire Orphan Therapies GmbH, dated 2015).

The labels stand for the following.
T1: natriuretic peptide receptor-B (human)
T1 chain: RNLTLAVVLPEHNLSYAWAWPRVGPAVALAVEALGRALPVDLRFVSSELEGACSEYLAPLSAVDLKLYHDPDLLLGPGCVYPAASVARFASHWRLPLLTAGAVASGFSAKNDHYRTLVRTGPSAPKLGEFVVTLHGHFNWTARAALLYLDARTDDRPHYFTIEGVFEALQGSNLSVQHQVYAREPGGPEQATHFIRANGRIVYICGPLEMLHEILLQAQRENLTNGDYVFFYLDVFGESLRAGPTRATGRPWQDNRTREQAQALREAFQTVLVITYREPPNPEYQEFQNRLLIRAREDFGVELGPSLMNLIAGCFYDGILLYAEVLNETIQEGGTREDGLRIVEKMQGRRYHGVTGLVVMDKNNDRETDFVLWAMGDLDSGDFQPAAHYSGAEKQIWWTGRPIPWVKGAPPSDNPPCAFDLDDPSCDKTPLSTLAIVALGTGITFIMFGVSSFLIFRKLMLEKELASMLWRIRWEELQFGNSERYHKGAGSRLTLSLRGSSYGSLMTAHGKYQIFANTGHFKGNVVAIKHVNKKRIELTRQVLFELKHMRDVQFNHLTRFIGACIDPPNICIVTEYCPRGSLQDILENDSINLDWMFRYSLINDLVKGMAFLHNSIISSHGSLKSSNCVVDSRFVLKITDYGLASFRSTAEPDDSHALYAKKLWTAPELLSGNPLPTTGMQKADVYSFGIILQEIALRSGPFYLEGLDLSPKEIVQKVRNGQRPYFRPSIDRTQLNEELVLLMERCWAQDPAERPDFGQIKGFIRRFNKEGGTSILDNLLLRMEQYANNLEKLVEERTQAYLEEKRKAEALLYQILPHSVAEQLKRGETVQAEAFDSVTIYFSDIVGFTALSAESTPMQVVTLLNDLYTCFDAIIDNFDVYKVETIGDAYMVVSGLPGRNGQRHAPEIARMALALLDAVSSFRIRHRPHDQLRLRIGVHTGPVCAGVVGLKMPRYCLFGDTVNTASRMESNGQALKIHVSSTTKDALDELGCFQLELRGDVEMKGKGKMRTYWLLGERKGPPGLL

B1: JAL-1493 (peptide)
peptide: Octanoyl-[Sni]X[leu]L[Hyp][NMeL]DRI-NH2
modifications: not fully specified (some residues); printed as Occ-Sni-Pcf-leu-Leu-Hyp-Nml-Asp-Arg-Ile-NH2
B2: JAL-1496 (peptide)
peptide: [Occ][Sni][Phe(3,4-Cl2)]LL[Hyp][NMeL]DRI-NH2
modifications: not fully specified (residue 4); printed as Occ-Sni-Eaa-leu-Leu-Hyp-Nml-Asp-Arg-Ile-NH2
B3: JAL-1476 (peptide)
peptide: Octanoyl-AF[leu]L[Hyp][NMeL]D[cisHyp]I-NH2
modifications: not fully specified (some residues); printed as Occ-ala-Phe-leu-Leu-Hyp-Nml-Asp-Chy-Ile-NH2; reading uncertain
B4: JAL-1482 (peptide)
peptide: Octanoyl-AF[leu]L[Hyp][NMeL]D[Dap]I-NH2
modifications: not fully specified (some residues); printed as Occ-ala-Phe-leu-Leu-Hyp-Nml-Asp-Udp-Ile-NH2; reading uncertain
B5: JAL-1506 (peptide)
peptide: [Occ][Sni]FLL[Hyp][NMeL]DP[NH((S)-tetralin-1-yl)]
modifications: not fully specified (residue 4); printed as Occ-Sni-Phe-leu-Leu-Hyp-Nml-Asp-Pro-2118
B6: JAL-1477 (peptide)
peptide: Octanoyl-AF[leu]L[Hyp][NMeL]D[Pro(3S-OH)]I-NH2
modifications: not fully specified (some residues); printed as Occ-ala-Phe-leu-Leu-Hyp-Nml-Asp-H3p-Ile-NH2; reading uncertain
B7: JAL-1483 (peptide)
peptide: Octanoyl-AF[leu]L[Hyp][NMeL]D[β3hK]I-NH2
modifications: not fully specified (some residues); printed as Occ-ala-Phe-leu-Leu-Hyp-Nml-Asp-Bhk-Ile-NH2; reading uncertain
B8: JAL-1479 (peptide)
peptide: Octanoyl-AF[leu]L[Hyp][NMeL]D[ΔPro]I-NH2
modifications: not fully specified (some residues); printed as Occ-ala-Phe-leu-Leu-Hyp-Nml-Asp-Dhp-Ile-NH2; reading uncertain
B9: JAL-1509_02 (peptide)
peptide: [Occ][Sni]FLL[Hyp][NMeL]DP[1381]
modifications: not fully specified (residue 4); printed as Occ-Sni-Phe-leu-Leu-Hyp-Nml-Asp-Pro-1381
B10: JAL-0657 (peptide)
peptide: XXFGLKLDRI
HELM: PEPTIDE1{[CCCCCC(=O)[*:2]].[O=C([C@H]1CCC[C@@H](N[*:1])C1)[*:2]].F.G.L.K.L.D.R.I.[am]}$$$$V2.0
SMILES: CCCCCC(=O)N[C@@H]1CCC[C@H](C(=O)N[C@@H](Cc2ccccc2)C(=O)NCC(=O)N[C@@H](CC(C)C)C(=O)N[C@@H](CCCCN)C(=O)N[C@@H](CC(C)C)C(=O)N[C@@H](CC(=O)O)C(=O)N[C@@H](CCCNC(=N)N)C(=O)N[C@H](C(N)=O)[C@@H](C)CC)C1
B11: JAL-1475 (peptide)
peptide: Octanoyl-[Sni]F[leu]L[Hyp][NMeL]DPI-NHMe
modifications: reading uncertain; also: printed as Occ-Sni-Phe-leu-Leu-Hyp-Nml-Asp-Pro-Ile-(NH-CH3)
B12: JAL-1511 (peptide)
peptide: [Occ][Sni]FLL[Hyp][NMeL]DP[1906]
modifications: not fully specified (residue 4); printed as Occ-Sni-Phe-leu-Leu-Hyp-Nml-Asp-Pro-1906; reading uncertain
B13: JAL-1508 (peptide)
peptide: [Occ][Sni]FLL[Hyp][NMeL]DP[2906]
modifications: not fully specified (residue 4); printed as Occ-Sni-Phe-leu-Leu-Hyp-Nml-Asp-Pro-2906
B14: JAL-1494 (peptide)
peptide: Octanoyl-[Sni]X[leu]L[Hyp][NMeL]DRI-NH2
modifications: not fully specified (some residues); printed as Occ-Sni-Pmf-leu-Leu-Hyp-Nml-Asp-Arg-Ile-NH2
B15: JAL-1510 (peptide)
peptide: [Occ][Sni]FLL[Hyp][NMeL]DP[1860]
modifications: not fully specified (residue 4); printed as Occ-Sni-Phe-leu-Leu-Hyp-Nml-Asp-Pro-1860; reading uncertain
B16: JAL-1509 (peptide)
peptide: [Occ][Sni]FLL[Hyp][NMeL]DP[1381]
modifications: not fully specified (residue 4); printed as Occ-Sni-Phe-leu-Leu-Hyp-Nml-Asp-Pro-1381

Numbered stars: 1 amine (or outer) side, 2 acyl side, 3 side chain; on linkers, the order of the positions; unused ones are H or OH. Square brackets hold non-standard residues; d marks the D form. Ends that are not written are not given here. * marks the point of attachment. Pmy = (S)-para-methoxy-phenylalanine, COc1ccc(C[C@H](N[*:1])C(=O)[*:2])cc1; 1381 = (S)-3,3-dimethylbutan-2-amine, C[C@H](N*)C(C)(C)C; Sni = (S)-nipecotic acid, O=C([C@H]1CCCN([*:1])C1)[*:2]; Phe(4-NO2) = N[C@@H](Cc1ccc([N+](=O)[O-])cc1)C(=O)O; Pro(trans-4-Ph) = O=C(O)[C@@H]1C[C@@H](c2ccccc2)CN1; NH((S)-tetralin-1-yl) = c1ccc2c(c1)CCC[C@@H]2N*; Phe(3,4-Cl2) = N[C@@H](Cc1ccc(Cl)c(Cl)c1)C(=O)O; Bmf = rac-2-amino-3-phenyl-butyric acid; Phe(4-F) = N[C@@H](Cc1ccc(F)cc1)C(=O)O; Pro(3S-OH) = O=C(O)[C@H]1NCC[C@@H]1O; cisHyp = O=C(O)[C@@H]1C[C@H](O)CN1; Hyp = O=C(O)[C@@H]1C[C@@H](O)CN1; NMeL = CN[C@@H](CC(C)C)C(=O)O; β3hK = NCCCC[C@H](N)CC(=O)O; ΔPro = O=C(O)[C@@H]1C=CCN1; Octanoyl = CCCCCCCC(=O)*; 1860 = not defined here; 1906 = not defined here; 2906 = cyclobutyl-amine; Ac5c = NC1(C(=O)O)CCCC1; Dap = NC[C@H](N)C(=O)O; Hexanoyl = CCCCCC(=O)*; Paf = not defined here; leu = not defined here; NHcHex = C1CCC(N*)CC1; Occ = octanoic acid Bounds are passed on as bounds.

For the assay, the target named is T1, natriuretic peptide receptor-B. The experiment in a line: cell-based or functional assay.
For the molecule Octanoyl-[Sni][Phe(4-F)][leu]L[Hyp][NMeL]DRI-NH2 (reading uncertain; also: printed as Occ-Sni-Pff-leu-Leu-Hyp-Nml-Asp-Arg-Ile-NH2) [JAL-1487], the “EC50 group, cGMP in GTM-3 cells” value was not above 1 µM. Under Octanoyl-[Sni]F[dL]L[Hyp][NMeL]DP[NHcHex] [JAL-1464] stands not above 5 µM.

In the case of B1, the “EC50 group, cGMP in GTM-3 cells” value is not above 1 µM. With Octanoyl-[Sni][Bmf][leu]L[Hyp][NMeL]DRI-NH2 (reading uncertain; also: printed as Occ-Sni-Bmf-leu-Leu-Hyp-Nml-Asp-Arg-Ile-) [JAL-1490] the figure was not above 15 µM. Under B2 stands not above 1 µM. With B3 the figure was not above 5 µM; with B4, not above 5 µM; with B5, not above 5 µM. Turning to B6, the “EC50 group, cGMP in GTM-3 cells” value is not above 5 µM.

For B7, the “EC50 group, cGMP in GTM-3 cells” value was not above 5 µM.

In the case of B8, the “EC50 group, cGMP in GTM-3 cells” value was not above 5 µM. With Octanoyl-[Sni]Y[leu]L[Hyp][NMeL]DRI-NH2 (reading uncertain; also: printed as Occ-Sni-Tyr-leu-Leu-Hyp-Nml-Asp-Arg-Ile-NH2) [JAL-1489], the “EC50 group, cGMP in GTM-3 cells” value was not above 15 µM. Under B9 stands not above 5 µM. With B10 the figure was not above 15 µM; with B11, not above 5 µM. With Octanoyl-[Sni][Phe(4-NO2)][leu]L[Hyp][NMeL]DRI-NH2 (reading uncertain; also: printed as Occ-Sni-Nif-leu-Leu-Hyp-Nml-Asp-Arg-Ile-NH2) [JAL-1486] the figure was not above 5 µM; with Octanoyl-[Sni][Pro(trans-4-Ph)][leu]L[Hyp][NMeL]DRI-NH2 (reading uncertain; also: printed as Occ-Sni-Eay-leu-Leu-Hyp-Nml-Asp-Arg-Ile-NH2) [JAL-1491], not above 5 µM; with Octanoyl-[Sni][Paf][leu]L[Hyp][NMeL]DRI-NH2 (reading uncertain; also: printed as Occ-Sni-Paf-leu-Leu-Hyp-Nml-Asp-Arg-Ile-NH2) [JAL-1492], not above 5 µM.

As to B12, the “EC50 group, cGMP in GTM-3 cells” value was not above 5 µM. With Octanoyl-[Sni]F[leu]L[Hyp][NMeL]DPI-OH (reading uncertain; also: printed as Occ-Sni-Phe-leu-Leu-Hyp-Nml-Asp-Pro-Ile-OH) [JAL-1474] the figure was not above 15 µM. For Octanoyl-[Sni][Pmy][leu]L[Hyp][NMeL]DRI-NH2 (reading uncertain; also: printed as Occ-Sni-Pmy-leu-Leu-Hyp-Nml-Asp-Arg-Ile-) [JAL-1488], the “EC50 group, cGMP in GTM-3 cells” value was not above 5 µM. With B13, the “EC50 group, cGMP in GTM-3 cells” value was not above 15 µM. As to Hexanoyl-[dA][dA]FGLKLDR[Ac5c]-NH2 [JAL-0692], the “EC50 group, cGMP in GTM-3 cells” value is not above 15 µM.

With B14, the “EC50 group, cGMP in GTM-3 cells” value was not above 1 µM. With B15 the figure was not above 1 µM. In the case of B16, the “EC50 group, cGMP in GTM-3 cells” value was not above 5 µM.
